Publication doi:10.1101/2023.10.23.563578

Target: recombinant Ena3A (major subunit of L-ENA fibers) (Bacillus paranthracis NVH 0075-95)
Assay: cryo-EM structure

- stoichiometry N: 7
Substance: recombinant Ena3A (major subunit of L-ENA fibers) (natural protein)
